Assay [1] addresses T1, murine neutrophil elastase (mNE) (mouse, UniProt Q3UP87 27-265).
T1 sequence (looked up): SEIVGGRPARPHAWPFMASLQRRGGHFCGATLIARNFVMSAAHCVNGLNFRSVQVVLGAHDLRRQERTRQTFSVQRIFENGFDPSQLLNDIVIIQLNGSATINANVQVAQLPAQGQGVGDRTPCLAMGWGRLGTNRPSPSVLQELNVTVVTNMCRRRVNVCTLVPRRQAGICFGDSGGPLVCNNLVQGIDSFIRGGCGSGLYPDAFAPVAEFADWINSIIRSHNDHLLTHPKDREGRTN
The assay can be described thus: SPR. For orientation: In SPR one partner is held on a chip, and binding of the other changes the refractive index at the surface.

In assay [2] the target is T2, human neutrophil elastase (hNE) (human, UniProt P08246 30-267).
T2 sequence (looked up): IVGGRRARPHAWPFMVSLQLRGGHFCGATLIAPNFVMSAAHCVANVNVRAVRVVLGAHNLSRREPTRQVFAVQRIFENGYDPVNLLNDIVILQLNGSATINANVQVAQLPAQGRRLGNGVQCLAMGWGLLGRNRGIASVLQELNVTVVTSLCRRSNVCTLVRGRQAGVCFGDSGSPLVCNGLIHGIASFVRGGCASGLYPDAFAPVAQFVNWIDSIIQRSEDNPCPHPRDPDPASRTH
As to the kind of experiment: MST.

The term Kd denotes the concentration at which binding is half-saturated. A lower Kd goes with tighter binding. A word on the koff: it is the rate constant with which the complex falls apart. The low end stands for slow dissociation, the high end for fast dissociation. The term kon denotes the second-order rate constant of association. In assay [1], CGEAIPMSIPPEVK [NE-binding peptide (NEBP)] displayed a Kd of 1.6 nM, a koff of 8.31e-06 s⁻¹ and a kon of 5200 M⁻¹ s⁻¹. The molecule also had a Kd in assay [2] of 2080 ± 1350 nM.

Source of the values: PMC9909445 (Nature nanotechnology, 2022).
